{"source": "IntAct's records for PubMed 11163211", "parents": {"B1": {"name": "G2/mitotic-specific cyclin cig2 (Schizosaccharomyces pombe (strain ATCC 38366 / 972)), P36630 (parent)", "chain": "MALYSISKPVGSKINKHSYQDENTLVGKQALSKGTEKTKLSTNFEINLPRRTVLSDVSNVGKNNADEKDTKKAKRSFDESNLSTNEEADKPVESKFVKKLKVYSKNADPSVETLQKDRVSNVDDHLSSNPLMAEEYAPEIFEYIRKLDLKCLPNPKYMDQQKELTWKMREILNEWLVEIHSNFCLMPETLYLAVNIIDRFLSRRSCSLSKFQLTGITALLIASKYEEVMCPSIQNFVYMTDGAFTVEDVCVAERYMLNVLNFDLSYPSPLNFLRKISQAEGYDAQTRTLGKYLTEIYLFDHDLLRYPMSKIAAAAMYLSRRLLRRGPWTPKLVESSGGYEEHELKEIAYIMLHYHNKPLEHKAFFQKYSSKRFLKASIFVHQLVRQRYSVNRTDDDDLQSEPSSSLTNDGH"}}, "data": [{"variants_of": "B1", "conditions": "with cdk1_schpo cdc2, P04551", "values": [{"variant": "MALYSISKPVGSKINKHSYQDENTLVGKQALSKGTEKTKLSTNFEINLPRRTVLSDVSNVGKNNADEKDTKKAKRSFDESNLSTNEEADKPVESKFVKKLKVYSKNADPSVETLQKDRVSNVDDHLSSNPLMAEEYAPEIFEYIRKLDLKCLPNPKYMDQQKELTWKMAAALNEWLVEIHSNFCLMPETLYLAVNIIDRFLSRRSCSLSKFQLTGITALLIASKYEEVMCPSIQNFVYMTDGAFTVEDVCVAERYMLNVLNFDLSYPSPLNFLRKISQAEGYDAQTRTLGKYLTEIYLFDHDLLRYPMSKIAAAAMYLSRRLLRRGPWTPKLVESSGGYEEHELKEIAYIMLHYHNKPLEHKAFFQKYSSKRFLKASIFVHQLVRQRYSVNRTDDDDLQSEPSSSLTNDGH", "note": "[R169A;E170A;I171A]", "effect of a mutation on the interaction": "disrupting interaction"}]}]}
